Source: patent US20040013647A1

Target: 508F(Fv)-CBD (508 scFv mutant C96F fused to CBD) (Clostridium thermocellum) (UniProt Q06851)
Assay: competitive ELISA, soluble βAP(1-16) pre-incubated with 508F(Fv)-CBD before βAP coated wells

βAP(1-16), β-amyloid 1-16 amino acid peptide
IC50: 1000 nM
